The record followed here is patent US20150056222A1 (Regeneron, published 2015).

This assay concerns the target T1, IL-6R (human, UniProt P08887 20-468).
T1 construct: whole, on cells
T1 sequence (looked up): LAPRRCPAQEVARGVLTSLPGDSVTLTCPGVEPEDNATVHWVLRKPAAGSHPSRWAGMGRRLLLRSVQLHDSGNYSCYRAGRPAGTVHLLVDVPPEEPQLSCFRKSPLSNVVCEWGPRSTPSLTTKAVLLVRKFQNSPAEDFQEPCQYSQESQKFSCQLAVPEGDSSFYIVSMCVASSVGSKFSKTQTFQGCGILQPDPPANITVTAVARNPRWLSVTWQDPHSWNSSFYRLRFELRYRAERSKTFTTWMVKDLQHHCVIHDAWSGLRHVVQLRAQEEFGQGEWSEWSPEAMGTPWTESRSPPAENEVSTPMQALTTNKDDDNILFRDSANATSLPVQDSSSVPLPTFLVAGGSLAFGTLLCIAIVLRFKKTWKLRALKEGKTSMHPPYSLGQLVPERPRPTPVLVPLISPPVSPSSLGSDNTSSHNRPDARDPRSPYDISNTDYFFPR
In words: FACS on KG-1 cells (endogenous IL-6R), PE anti-human secondary, MFI above isotype control.

B1: VV6A9-5 (antibody, V domains shown)
VH: EVQLVESGGGLVQPGRSLRLSCAASGFTFDDYALHWVRQAPGKGLEWVSGVSWNGGRIGYADSVKGRFTISRDNAKNSLFLQMNSLRVEDTALYYCAKGRDAFDIWGQGTLVTVSS
VL: DIQMTQSPSSVSASVGDRVTITCRASQGISSWLAWYQQKPGKAPKLLIYAASSLQSGVPSRFSGSGSGTDFTLTISSLQPEDFATYYCQHAYSFPYTFGQGTKLEIK
Regarding B1, the “MFI fold over background” value was determined as 7 fold over background.
